This assay addresses STIM1-CFP (stromal interacting molecule 1) (UniProt Q13586). Nature of the assay: FRET or BRET; FRET between YFP-IP3R and STIM1-CFP in transfected cells, measured in TIRFM mode (less than 100 nm from the coverslip), after bradykinin stimulation (cells transfected with the human bradykinin type 2 receptor).
Chain of UniProt Q13586 (Q13586 23-685): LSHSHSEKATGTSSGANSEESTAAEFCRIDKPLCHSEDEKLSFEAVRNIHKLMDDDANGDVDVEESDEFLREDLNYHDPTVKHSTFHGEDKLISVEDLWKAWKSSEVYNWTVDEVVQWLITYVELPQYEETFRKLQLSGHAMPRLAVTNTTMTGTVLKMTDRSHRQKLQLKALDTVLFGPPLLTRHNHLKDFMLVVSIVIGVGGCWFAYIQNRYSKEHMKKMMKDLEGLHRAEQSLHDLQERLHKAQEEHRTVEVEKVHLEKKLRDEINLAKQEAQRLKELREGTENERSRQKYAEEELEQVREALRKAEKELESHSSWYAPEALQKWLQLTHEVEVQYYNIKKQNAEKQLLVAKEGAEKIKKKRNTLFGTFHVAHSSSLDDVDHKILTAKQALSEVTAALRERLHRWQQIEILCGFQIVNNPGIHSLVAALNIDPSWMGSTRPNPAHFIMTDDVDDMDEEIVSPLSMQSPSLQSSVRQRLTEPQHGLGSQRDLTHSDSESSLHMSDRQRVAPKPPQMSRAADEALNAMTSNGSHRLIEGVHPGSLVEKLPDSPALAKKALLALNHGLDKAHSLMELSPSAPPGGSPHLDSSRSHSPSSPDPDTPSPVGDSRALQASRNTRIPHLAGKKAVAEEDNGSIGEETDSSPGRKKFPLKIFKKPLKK

“YFP-IP3R (inositol trisphosphate receptor type 1) (from UniProt Q14643-2 1-2743)” displayed an FRET efficiency of 24%.

The values above are taken from PMC6125598.
